Data published in patent US11407811B2, “Fusion protein, preparation method therefor and use thereof” (JIANGSU RONGTAI BIOTECH CO., LTD., priority 2017, dated 2022).

What was measured:
lung cancer cell A549 = experiment: MTT assay, proliferation of lung cancer cell A549; type: cell-based
Protocol: (§1) The MTT assay was used to detect the inhibitory effect of the integrin blocker fusion protein obtained in Example 1 on the proliferation of various tumor cells, including melanoma cell B16F10, gastric cancer cell MGC-803, lung cancer cell A549, liver cancer cell Hep-G2, breast cancer cell MDA-MB-231, colon cancer cell HCT-116, human glioma U87, and cervical cancer cell Hela.
(§2) The tumor cells were cultured in a 5% CO2 incubator at 37° C. to a density of 90% or more, and collected by trypsinization. The cells were resuspended in the culture liquid and counted under a microscope. The cell concentration was adjusted to 3.0×10^4 cells/mL. The cell suspension was inoculated into a 96-well plate at 100 μL per well and cultured overnight in a 5% CO2 incubator at 37° C. […] After the cells were fully adhered, each dilution was added to a 96-well plate at 100 μL per well, respectively. […] 20 μL of 5 mg/mL MTT was added to each well of a 96-well plate, and incubation was continued for 4 hours. The medium was aspirated and 100 μL of DMSO per well were added to dissolve. The absorbance was measured at 570 nm with a microplate reader with a reference wavelength of 630 nm, and the proliferation inhibition (PI) was calculated. The formula is as follows: […]
(§3) where Ntest is the OD value of the test group and Ncontrol is the OD value of the blank control group.
(§4) The test was repeated 5 times independently. The results obtained from the test were calculated as mean±SD, and statistical t-test was performed. P<0.05 was considered as a significant difference, and P<0.01 was considered as an extremely significant difference.

[1] = system: colon cancer cells HCT-116; experiment: MTT assay, proliferation of colon cancer cell HCT-116; type: cell-based
Protocol: as §1, §2, §3, §4

[2] = system: diabetic retinopathy rat model; experiment: Neovascularization in diabetic retinopathy rat model (STZ); type: in vivo; settings: 100 μg dose, intravitreal injection
Protocol: The experimental diabetic rat model was established with streptozotocin STZ. STZ was dissolved in 0.1 mol/L citrate buffer at pH 4.5 to prepare a 2% solution. All experimental Wistar rats were fasted for 12 h before injection, and each rat was intraperitoneally injected with a 2% STZ solution at a dose of 65 mg/kg. After the injection, the rats were fed in single cages, and urine sugar and blood sugar were detected at the 48th hour. When urine sugar was +++ or above, and blood glucose was higher than 16.7 mmol/L, the model establishment requirement is reached. The diabetic retinopathy model was successfully established by detecting blood glucose, urine glucose, and urine volume and retinal VEGF immunohistochemistry.
15 rats were randomly divided into […], which were labeled as a control group, and fusion protein I, protein II, protein III, protein IV and protein V treatment groups. The administration was performed via intravitreal injection once every 5 days for 2 weeks, in which the control group was injected with physiological saline (0.1 mL), and the fusion protein I, protein II, protein III, protein IV, and protein V were all administered with 100 μg (0.1 mL). Observation was performed on week 4, week 8, and week 12.

[3] = system: toe swelling in rat induced by carrageenan; experiment: Acute inflammation of toe swelling in rat induced by carrageenan; type: in vivo; settings: for Swelling degree 1 h: 1 h after carrageenan; for Swelling degree 1 h / Swelling degree 3 h / Swelling degree 5 h / Swelling degree 7 h: rat foot; for Swelling degree 3 h: 3 h after carrageenan; for Swelling degree 5 h: 5 h after carrageenan; for Swelling degree 7 h: 7 h after carrageenan
Protocol: 80 SD rats were randomly divided into 8 groups with 10 mice for each group. […] The drug was administered once by injection, and the model group was given an equal volume of physiological saline and fed normally. On the third day, 0.1 mL of 1% carrageenan was injected subcutaneously into the right hind toes of the rats to induce inflammation. The foot volume was measured at 1 h, 3 h, 5 h, and 7 h after inflammation. The swelling degree of the foot was calculated according to the following formula: the swelling degree of the foot (mL)=the volume of the foot after inflammation—the volume before inflammation. The number of milliliters of spilled liquid was recorded (method: the protruding point of the right joint was circled with a ballpoint pen and used as a measurement mark, and the right hind feet of the rat were sequentially placed in the volume measuring device, so that the hind limbs were exposed outside the cylinder, and the depth of the immersion was limited to the overlap of the circle and the liquid level. After the foot entered the liquid, the liquid level was raised, and the volume of the spilled liquid was the volume of the right hind foot of the rat, and the normal volume of the right hind foot of each rat is sequentially determined).

B1: Protein II: IgG2-Fc linked to antiangiogenesis polypeptide EDSM-Y via a flexible linker; SEQ ID NO: 17 (protein)
chain: ERKCCVECPPCPAPPVAGPSVFLFPPKPKDTLMISRTPEVTCVVVDVSHEDPEVQFNWYVDGVEVHNAKTKPREEQFNSTFRVVSVLTVVHQDWLNGKEYKCKVSNKGLPAPIEKTISKTKGQPREPQVYTLPPSREEMTKNQVSLTCLVKGFYPSDISVEWESNGQPENNYKTTPPMLDSDGSFFLYSKLTVDKSRWQQGNVFSCSVMHEALHNHYTQKSLSLSPGKGGGGSGGGGSGGGGSFQPVLHLVALNSPLSGGMRGIRGADFQCFQQARAVGLAGTFRAGGGGRGD
A570 nm/A630 nm (lung cancer cell A549; dose 1 μg/mL): 0.8885 ± 0.0374 | PI (%) (lung cancer cell A549; dose 1 μg/mL): 8.28% | A570 nm/A630 nm (lung cancer cell A549; dose 2 μg/mL): 0.7933 ± 0.0253 | PI (%) (lung cancer cell A549; dose 2 μg/mL): 18.11% | A570 nm/A630 nm (lung cancer cell A549; dose 4 μg/mL): 0.7005 ± 0.0396 | PI (%) (lung cancer cell A549; dose 4 μg/mL): 27.69% | A570 nm/A630 nm (lung cancer cell A549; dose 8 μg/mL): 0.6325 ± 0.0215 | PI (%) (lung cancer cell A549; dose 8 μg/mL): 34.71% | A570 nm/A630 nm (lung cancer cell A549; dose 16 μg/mL): 0.5923 ± 0.0192 | PI (%) (lung cancer cell A549; dose 16 μg/mL): 38.86% | PI (%) (lung cancer cell A549; dose 16 μg/mL, listed as protein II): about 40% | A570 nm/A630 nm (lung cancer cell A549; dose 32 μg/mL): 0.5006 ± 0.0347 | PI (%) (lung cancer cell A549; dose 32 μg/mL): 48.32% | A570 nm/A630 nm (lung cancer cell A549; dose 64 μg/mL): 0.4106 ± 0.0286 | PI (%) (lung cancer cell A549; dose 64 μg/mL): 57.61% | A570 nm/A630 nm (lung cancer cell A549; dose 128 μg/mL): 0.2008 ± 0.0147 | PI (%) (lung cancer cell A549; dose 128 μg/mL): 79.27% | A570 nm/A630 nm (lung cancer cell A549; dose 256 μg/mL): 0.1165 ± 0.0159 | PI (%) (lung cancer cell A549; dose 256 μg/mL): 87.97% | A570 nm/A630 nm ([1]; dose 1 μg/mL): 0.8310 ± 0.0394 | PI (%) ([1]; dose 1 μg/mL): 5.59% | A570 nm/A630 nm ([1]; dose 2 μg/mL): 0.7925 ± 0.0415 | PI (%) ([1]; dose 2 μg/mL): 9.96% | A570 nm/A630 nm ([1]; dose 4 μg/mL): 0.7555 ± 0.0283 | PI (%) ([1]; dose 4 μg/mL): 14.17% | A570 nm/A630 nm ([1]; dose 8 μg/mL): 0.7023 ± 0.0347 | PI (%) ([1]; dose 8 μg/mL): 20.21% | A570 nm/A630 nm ([1]; dose 16 μg/mL): 0.6556 ± 0.0292 | PI (%) ([1]; dose 16 μg/mL): 25.52% | A570 nm/A630 nm ([1]; dose 32 μg/mL): 0.6113 ± 0.0279 | PI (%) ([1]; dose 32 μg/mL): 30.55% | A570 nm/A630 nm ([1]; dose 64 μg/mL): 0.5498 ± 0.0374 | PI (%) ([1]; dose 64 μg/mL): 37.54% | A570 nm/A630 nm ([1]; dose 128 μg/mL): 0.4898 ± 0.0289 | PI (%) ([1]; dose 128 μg/mL): 44.35% | A570 nm/A630 nm ([1]; dose 256 μg/mL): 0.4497 ± 0.0316 | PI (%) ([1]; dose 256 μg/mL): 48.91% | therapeutic effect on diabetic retinopathy [2]: a certain therapeutic effect on diabetic retinopathy | Swelling degree 1 h ([3]; 8 mg/kg): 0.29 ± 0.25 mL | Swelling degree 3 h ([3]; 8 mg/kg): 0.34 ± 0.09 mL | Swelling degree 5 h ([3]; 8 mg/kg): 0.36 ± 0.12 mL | Swelling degree 7 h ([3]; 8 mg/kg): 0.41 ± 0.09 mL | Swelling degree 1 h ([3]; 32 mg/kg): 0.27 ± 0.06 mL | Swelling degree 3 h ([3]; 32 mg/kg): 0.41 ± 0.18 mL | Swelling degree 5 h ([3]; 32 mg/kg): 0.37 ± 0.11 mL | Swelling degree 7 h ([3]; 32 mg/kg): 0.33 ± 0.02 mL | Swelling degree 1 h ([3]; 128 mg/kg): 0.21 ± 0.16 mL | Swelling degree 3 h ([3]; 128 mg/kg): 0.32 ± 0.10 mL | Swelling degree 5 h ([3]; 128 mg/kg): 0.41 ± 0.05 mL | Swelling degree 7 h ([3]; 128 mg/kg): 0.36 ± 0.16 mL | inhibition of toe swelling induced by carrageenan ([3]; high doses): could significantly inhibit toe swelling | inhibition of toe swelling induced by carrageenan ([3]; low dose): not significant
